Square brackets hold non-standard residues; d marks the D form. Ends that are not written are not given here. * marks the point of attachment. Phe(F5) = N[C@@H](Cc1c(F)c(F)c(F)c(F)c1F)C(=O)O; Palmitoyl = CCCCCCCCCCCCCCCC(=O)*; Myristoyl = CCCCCCCCCCCCCC(=O)*; Nle = CCCC[C@H](N)C(=O)O; Sar = CNCC(=O)O
T1: rat PrRP receptor in RC-4B/C cells (rat, UniProt Q64121 1-370)
T1 construct: whole, on cells; endogenous receptor of RC-4B/C cells (ATCC); also called rat receptor; GPR10 receptor expressed in rat hypophyseal cells
T1 sequence (looked up): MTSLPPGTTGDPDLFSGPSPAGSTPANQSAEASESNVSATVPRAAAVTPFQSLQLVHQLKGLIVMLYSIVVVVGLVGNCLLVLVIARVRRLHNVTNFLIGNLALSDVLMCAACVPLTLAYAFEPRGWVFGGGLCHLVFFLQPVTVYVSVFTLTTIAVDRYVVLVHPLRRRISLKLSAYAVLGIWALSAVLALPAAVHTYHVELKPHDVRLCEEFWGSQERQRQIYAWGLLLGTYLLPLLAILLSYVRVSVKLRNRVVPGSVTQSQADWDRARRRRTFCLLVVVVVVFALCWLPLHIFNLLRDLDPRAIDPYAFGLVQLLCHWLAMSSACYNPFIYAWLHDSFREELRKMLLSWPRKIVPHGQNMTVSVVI

T2: human PrRP receptor GPR10 (human, UniProt P49683 1-370)
T2 construct: whole, on cells; also called GPR10 human receptor transfected in CHO cells; human GPR10 receptor
T2 sequence (looked up): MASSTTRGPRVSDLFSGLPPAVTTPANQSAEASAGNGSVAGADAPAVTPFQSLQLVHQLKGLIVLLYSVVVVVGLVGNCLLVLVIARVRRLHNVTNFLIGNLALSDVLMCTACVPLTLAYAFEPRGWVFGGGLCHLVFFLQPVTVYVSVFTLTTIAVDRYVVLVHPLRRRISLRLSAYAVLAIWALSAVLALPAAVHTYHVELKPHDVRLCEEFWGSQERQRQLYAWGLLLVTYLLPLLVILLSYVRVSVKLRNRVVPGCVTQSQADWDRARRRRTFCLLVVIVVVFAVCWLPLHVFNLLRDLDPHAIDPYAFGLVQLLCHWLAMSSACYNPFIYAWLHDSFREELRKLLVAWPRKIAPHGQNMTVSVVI

B1: analog no. 25 (peptide)
peptide: [dF][dR]GVPRIGRGTYWAPNIDPT-NH2
modifications: N-terminus assumed
SMILES: CC[C@H](C)[C@H](NC(=O)[C@H](CCCNC(=N)N)NC(=O)[C@@H]1CCCN1C(=O)[C@@H](NC(=O)CNC(=O)[C@@H](CCCNC(=N)N)NC(=O)[C@H](N)Cc1ccccc1)C(C)C)C(=O)NCC(=O)N[C@@H](CCCNC(=N)N)C(=O)NCC(=O)N[C@H](C(=O)N[C@@H](Cc1ccc(O)cc1)C(=O)N[C@@H](Cc1c[nH]c2ccccc12)C(=O)N[C@@H](C)C(=O)N1CCC[C@H]1C(=O)N[C@@H](CC(N)=O)C(=O)N[C@H](C(=O)N[C@@H](CC(=O)O)C(=O)N1CCC[C@H]1C(=O)N[C@H](C(N)=O)[C@@H](C)O)[C@@H](C)CC)[C@@H](C)O
notes: scrambled peptide; also called 25 scram
B2: analog no. 23 (peptide)
peptide: SRAHQHS[Nle]ETRTPDINPAWYTGRGIRPVGRY-NH2
modifications: N-terminus assumed
SMILES: CCCC[C@H](NC(=O)[C@H](CO)NC(=O)[C@H](Cc1c[nH]cn1)NC(=O)[C@H](CCC(N)=O)NC(=O)[C@H](Cc1c[nH]cn1)NC(=O)[C@H](C)NC(=O)[C@H](CCCNC(=N)N)NC(=O)[C@@H](N)CO)C(=O)N[C@@H](CCC(=O)O)C(=O)N[C@H](C(=O)N[C@@H](CCCNC(=N)N)C(=O)N[C@H](C(=O)N1CCC[C@H]1C(=O)N[C@@H](CC(=O)O)C(=O)N[C@H](C(=O)N[C@@H](CC(N)=O)C(=O)N1CCC[C@H]1C(=O)N[C@@H](C)C(=O)N[C@@H](Cc1c[nH]c2ccccc12)C(=O)N[C@@H](Cc1ccc(O)cc1)C(=O)N[C@H](C(=O)NCC(=O)N[C@@H](CCCNC(=N)N)C(=O)NCC(=O)N[C@H](C(=O)N[C@@H](CCCNC(=N)N)C(=O)N1CCC[C@H]1C(=O)N[C@H](C(=O)NCC(=O)N[C@@H](CCCNC(=N)N)C(=O)N[C@@H](Cc1ccc(O)cc1)C(N)=O)C(C)C)[C@@H](C)CC)[C@@H](C)O)[C@@H](C)CC)[C@@H](C)O)[C@@H](C)O
B3: analog no. 24 (peptide)
peptide: Palmitoyl-SRAHQHS[Nle]ETRTPDINPAWYTGRGIRPVGRY-NH2
SMILES: CCCCCCCCCCCCCCCC(=O)N[C@@H](CO)C(=O)N[C@@H](CCCNC(=N)N)C(=O)N[C@@H](C)C(=O)N[C@@H](Cc1c[nH]cn1)C(=O)N[C@@H](CCC(N)=O)C(=O)N[C@@H](Cc1c[nH]cn1)C(=O)N[C@@H](CO)C(=O)N[C@@H](CCCC)C(=O)N[C@@H](CCC(=O)O)C(=O)N[C@H](C(=O)N[C@@H](CCCNC(=N)N)C(=O)N[C@H](C(=O)N1CCC[C@H]1C(=O)N[C@@H](CC(=O)O)C(=O)N[C@H](C(=O)N[C@@H](CC(N)=O)C(=O)N1CCC[C@H]1C(=O)N[C@@H](C)C(=O)N[C@@H](Cc1c[nH]c2ccccc12)C(=O)N[C@@H](Cc1ccc(O)cc1)C(=O)N[C@H](C(=O)NCC(=O)N[C@@H](CCCNC(=N)N)C(=O)NCC(=O)N[C@H](C(=O)N[C@@H](CCCNC(=N)N)C(=O)N1CCC[C@H]1C(=O)N[C@H](C(=O)NCC(=O)N[C@@H](CCCNC(=N)N)C(=O)N[C@@H](Cc1ccc(O)cc1)C(N)=O)C(C)C)[C@@H](C)CC)[C@@H](C)O)[C@@H](C)CC)[C@@H](C)O)[C@@H](C)O
B4: analog no. 27 (peptide)
peptide: TPDINPAWYTGR[Sar]IRPVGRF-NH2
modifications: N-terminus assumed
SMILES: CC[C@H](C)[C@H](NC(=O)CN(C)C(=O)[C@H](CCCNC(=N)N)NC(=O)CNC(=O)[C@@H](NC(=O)[C@H](Cc1ccc(O)cc1)NC(=O)[C@H](Cc1c[nH]c2ccccc12)NC(=O)[C@H](C)NC(=O)[C@@H]1CCCN1C(=O)[C@H](CC(N)=O)NC(=O)[C@@H](NC(=O)[C@H](CC(=O)O)NC(=O)[C@@H]1CCCN1C(=O)[C@@H](N)[C@@H](C)O)[C@@H](C)CC)[C@@H](C)O)C(=O)N[C@@H](CCCNC(=N)N)C(=O)N1CCC[C@H]1C(=O)N[C@H](C(=O)NCC(=O)N[C@@H](CCCNC(=N)N)C(=O)N[C@@H](Cc1ccccc1)C(N)=O)C(C)C
B5: analog no. 28 (peptide)
peptide: Myristoyl-TPDINPAWYTGR[Sar]IRPVGRF-NH2
SMILES: CCCCCCCCCCCCCC(=O)N[C@H](C(=O)N1CCC[C@H]1C(=O)N[C@@H](CC(=O)O)C(=O)N[C@H](C(=O)N[C@@H](CC(N)=O)C(=O)N1CCC[C@H]1C(=O)N[C@@H](C)C(=O)N[C@@H](Cc1c[nH]c2ccccc12)C(=O)N[C@@H](Cc1ccc(O)cc1)C(=O)N[C@H](C(=O)NCC(=O)N[C@@H](CCCNC(=N)N)C(=O)N(C)CC(=O)N[C@H](C(=O)N[C@@H](CCCNC(=N)N)C(=O)N1CCC[C@H]1C(=O)N[C@H](C(=O)NCC(=O)N[C@@H](CCCNC(=N)N)C(=O)N[C@@H](Cc1ccccc1)C(N)=O)C(C)C)[C@@H](C)CC)[C@@H](C)O)[C@@H](C)CC)[C@@H](C)O
B6: analog no. 51 (peptide)
peptide: SRTHRHSMEIRTPDINPK(Palmitoyl)WYASRGIRPVGRF-NH2
modifications: N-terminus assumed
SMILES: CCCCCCCCCCCCCCCC(=O)NCCCC[C@H](NC(=O)[C@@H]1CCCN1C(=O)[C@H](CC(N)=O)NC(=O)[C@@H](NC(=O)[C@H](CC(=O)O)NC(=O)[C@@H]1CCCN1C(=O)[C@@H](NC(=O)[C@H](CCCNC(=N)N)NC(=O)[C@@H](NC(=O)[C@H](CCC(=O)O)NC(=O)[C@H](CCSC)NC(=O)[C@H](CO)NC(=O)[C@H](Cc1c[nH]cn1)NC(=O)[C@H](CCCNC(=N)N)NC(=O)[C@H](Cc1c[nH]cn1)NC(=O)[C@@H](NC(=O)[C@H](CCCNC(=N)N)NC(=O)[C@@H](N)CO)[C@@H](C)O)[C@@H](C)CC)[C@@H](C)O)[C@@H](C)CC)C(=O)N[C@@H](Cc1c[nH]c2ccccc12)C(=O)N[C@@H](Cc1ccc(O)cc1)C(=O)N[C@@H](C)C(=O)N[C@@H](CO)C(=O)N[C@@H](CCCNC(=N)N)C(=O)NCC(=O)N[C@H](C(=O)N[C@@H](CCCNC(=N)N)C(=O)N1CCC[C@H]1C(=O)N[C@H](C(=O)NCC(=O)N[C@@H](CCCNC(=N)N)C(=O)N[C@@H](Cc1ccccc1)C(N)=O)C(C)C)[C@@H](C)CC

target: T1, rat PrRP receptor in RC-4B/C cells; test: competition with 125I-rat PrRP31, RC-4B/C cells
Experimental: The rat pituitary cell line RC-4B/C (ATCC, Manassas, USA) was grown on 24-well plates which had their bottom coated with polyethyleneimine. The cells were grown to the optimal density of 300-450 thousand cells per well.
(§1) Plates were incubated for 60 minutes at room temperature. After incubation, the cells were solubilized in 0.1 mol/l solution of NaOH, and the radioactivity bound to the cells was counted using a γ-counter. The experiments were performed in duplicate, and repeated at least three times.

Question: How did the “% of PrRP31” value turn out when B1 was run?
Answer: Its value is 0.09%.

Question: And the Ki?
Answer: The Ki was 5200 nM.

Question: With SRAHQHS[Nle]ETRTPDINPAWYTGRGIRPVGRF-NH2 [analog no. 3] as the binder, how does the “% of PrRP31” value read?
Answer: The value was 385%.

Question: And the Ki?
Answer: Its Ki is 1.28 nM.

Question: Which results are given for B2?
Answer: % of PrRP31: 152%; Ki: 3.25 nM

Question: What does the source list for B3?
Answer: % of PrRP31: 1120%; Ki: 0.44 nM

Question: Which “% of PrRP31” value does the source give for B4 here?
Answer: Its value is 62%.

Question: What about the Ki of the same binder?
Answer: The Ki was 7.94 nM.

Question: SRAHQHS[Nle]ETRTPDINPAWYTGRGIRPVGR[Phe(F5)]-NH2 [analog no. 21] was tested. Which “% of PrRP31” value did it give?
Answer: The value was 51%.

Question: What about the Ki of the same binder?
Answer: Its Ki is 9.69 nM.

Question: What does the source list for Palmitoyl-SRAHQHS[Nle]ETRTPDINPAWYTGRGIRPVGR[Phe(F5)]-NH2 [analog no. 22]?
Answer: % of PrRP31: 966%; Ki: 0.51 nM

Question: Which “% of PrRP31” value does the source give for SRAHQHSMETRTPDINPAWYTGRGIRPVGRF-NH2 (synthetic peptide) [Rat PrRP31] here?
Answer: Its value is 100%.

Question: What about the Ki of the same binder?
Answer: Its Ki is 4.93 nM.

Question: With B5 as the binder, how does the “% of PrRP31” value read?
Answer: The value was 1540%.

Question: And the Ki?
Answer: Its Ki is 0.32 nM.

target: T2, human PrRP receptor GPR10; test: competition with 125I-human PrRP31, CHO cells with human GPR10
Experimental: CHO cells transfected with human PrRP receptor GPR10 (Perkin Elmer, USA) were grown on 24-well plates coated with polyethyleneimine. […] The following agents were used for the experiment: binding buffer (25 mmol.1⁻¹ Tris, pH 7.4; 118 mmol.1⁻¹ NaCl, 10 mmol.1⁻¹ MgCl₂, 1 mmol.1⁻¹ CaCl₂, 5.5 mmol.1⁻¹ glucose, 0.5 mg/ml BSA), unlabeled analogs of PrRP (i.e. the analog being tested) at a final concentration between 10⁻¹¹ to 10⁻⁴ mol.1⁻¹, and radiolabeled human ¹²⁵1-PrRP31 at a final concentration of 5×10⁻¹¹ mol.1⁻¹.
as §1

Question: B1 was tested. Which “% of PrRP31” value did it give?
Answer: Its value is 0.06%.

Question: And the Ki?
Answer: The Ki was 6290 nM.

Question: Which “% of PrRP31” value does the source give for SRAHQHS[Nle]ETRTPDINPAWYTGRGIRPVGRF-NH2 [analog no. 3] here?
Answer: Its value is 203%.

Question: And the Ki?
Answer: The Ki was 1.92 nM.

Question: How did the “% of PrRP31” value turn out when B2 was run?
Answer: The value was 193%.

Question: And the Ki?
Answer: Its Ki is 2.02 nM.

Question: Which “% of PrRP31” value does the source give for B3 here?
Answer: Its value is 248%.

Question: What about the Ki of the same binder?
Answer: Its Ki is 1.57 nM.

Question: Which results are given for B4?
Answer: % of PrRP31: 86%; Ki: 4.51 nM

Question: Which results are given for SRAHQHS[Nle]ETRTPDINPAWYTGRGIRPVGR[Phe(F5)]-NH2 [analog no. 21]?
Answer: % of PrRP31: 45%; Ki: 8.59 nM

Question: For B6, which “% of PrRP31” value is on record?
Answer: Its value is 54%.

Question: And the Ki?
Answer: Its Ki is 7.24 nM.

Question: With Palmitoyl-SRAHQHS[Nle]ETRTPDINPAWYTGRGIRPVGR[Phe(F5)]-NH2 [analog no. 22] as the binder, how does the “% of PrRP31” value read?
Answer: The value was 203%.

Question: And the Ki?
Answer: Its Ki is 1.92 nM.

Question: How did the “% of PrRP31” value turn out when SRAHQHSMETRTPDINPAWYTGRGIRPVGRF-NH2 (synthetic peptide) [Rat PrRP31] was run?
Answer: Its value is 100%.

Question: And the Ki?
Answer: The Ki was 3.89 nM.

Question: With B5 as the binder, how does the “% of PrRP31” value read?
Answer: Its value is 125%.

Question: And the Ki?
Answer: Its Ki is 3.12 nM.
